The text below walks through data of patent US20230183336A1 (MODMAB THERAPEUTICS, published 2023).

Numbering of substitutions follows the chain as printed.

Experiment [1] concerns the target T1, recombinant human LRP6-Fc chimera (human, UniProt O75581 20-1370).
T1 construct: extracellular domain; also called ECD of human LRP6; not shown: Fc part of the chimera
T1 sequence (looked up): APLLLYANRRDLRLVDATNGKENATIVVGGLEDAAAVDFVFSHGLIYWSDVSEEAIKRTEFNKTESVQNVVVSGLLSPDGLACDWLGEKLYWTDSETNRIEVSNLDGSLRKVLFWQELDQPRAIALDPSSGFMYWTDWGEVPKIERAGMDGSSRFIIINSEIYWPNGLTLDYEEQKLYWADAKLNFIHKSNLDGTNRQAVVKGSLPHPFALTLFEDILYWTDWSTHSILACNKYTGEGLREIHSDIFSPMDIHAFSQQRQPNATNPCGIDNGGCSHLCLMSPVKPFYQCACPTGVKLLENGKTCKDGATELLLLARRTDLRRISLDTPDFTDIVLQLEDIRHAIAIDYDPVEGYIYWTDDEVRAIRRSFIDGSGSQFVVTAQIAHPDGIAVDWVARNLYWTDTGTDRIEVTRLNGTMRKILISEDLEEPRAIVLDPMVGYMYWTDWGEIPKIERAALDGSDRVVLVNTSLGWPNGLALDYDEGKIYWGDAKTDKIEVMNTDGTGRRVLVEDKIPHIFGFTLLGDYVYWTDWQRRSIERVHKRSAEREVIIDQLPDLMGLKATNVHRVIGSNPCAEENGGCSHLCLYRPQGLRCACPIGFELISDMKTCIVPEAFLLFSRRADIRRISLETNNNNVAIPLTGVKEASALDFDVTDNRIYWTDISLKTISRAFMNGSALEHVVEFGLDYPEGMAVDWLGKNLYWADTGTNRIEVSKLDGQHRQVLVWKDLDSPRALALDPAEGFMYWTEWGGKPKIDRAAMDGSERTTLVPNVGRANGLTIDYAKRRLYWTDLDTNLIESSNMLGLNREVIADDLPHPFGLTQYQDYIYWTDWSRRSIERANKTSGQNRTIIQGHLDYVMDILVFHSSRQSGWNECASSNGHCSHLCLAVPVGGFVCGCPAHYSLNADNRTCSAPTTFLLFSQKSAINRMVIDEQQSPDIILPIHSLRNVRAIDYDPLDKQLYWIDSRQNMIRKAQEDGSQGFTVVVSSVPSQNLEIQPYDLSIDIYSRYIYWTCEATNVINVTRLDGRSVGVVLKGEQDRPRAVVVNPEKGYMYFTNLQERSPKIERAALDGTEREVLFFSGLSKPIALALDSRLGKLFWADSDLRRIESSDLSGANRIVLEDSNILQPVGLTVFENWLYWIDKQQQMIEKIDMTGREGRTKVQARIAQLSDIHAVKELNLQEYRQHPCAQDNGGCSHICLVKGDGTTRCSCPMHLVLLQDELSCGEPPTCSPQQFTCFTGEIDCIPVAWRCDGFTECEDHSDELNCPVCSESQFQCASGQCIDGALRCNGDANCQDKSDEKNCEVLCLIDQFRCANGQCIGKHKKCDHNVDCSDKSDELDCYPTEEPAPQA
Kind of experiment: multipoint competitive ELISA, IgG1; varied competitor printed as recombinant human LRP6-Fc chimera, while paragraph 283 says 'the recombinant antigen'. The text has this:
(§1) The full length IgG1s and the antibody fragments (Fabs) were purified and a single-point ELISA was done to determine the specificity of the antibodies. […] A multipoint competitive ELISA was used to determine the relative affinities of the antibodies to the recombinant antigen.
Table 3 reports the IC50 of LRP5 antibodies as determined by competitive ELISA. The log of the recombinant human LRP6-Fc chimera concentration (x-axis) was plotted against the OD450 reading of the antibody (y-axis). The IC50 was determined by non-linear regression analysis.
In general terms: An ELISA detects its analyte on a solid surface through an enzyme-linked reagent.

For experiment [2], the target named is T2, recombinant mouse LRP5-His chimera (mouse, UniProt Q91VN0 31-1383).
T2 construct: extracellular domain; also called ECD of mouse LRP5; not shown: His tag
T2 sequence (looked up): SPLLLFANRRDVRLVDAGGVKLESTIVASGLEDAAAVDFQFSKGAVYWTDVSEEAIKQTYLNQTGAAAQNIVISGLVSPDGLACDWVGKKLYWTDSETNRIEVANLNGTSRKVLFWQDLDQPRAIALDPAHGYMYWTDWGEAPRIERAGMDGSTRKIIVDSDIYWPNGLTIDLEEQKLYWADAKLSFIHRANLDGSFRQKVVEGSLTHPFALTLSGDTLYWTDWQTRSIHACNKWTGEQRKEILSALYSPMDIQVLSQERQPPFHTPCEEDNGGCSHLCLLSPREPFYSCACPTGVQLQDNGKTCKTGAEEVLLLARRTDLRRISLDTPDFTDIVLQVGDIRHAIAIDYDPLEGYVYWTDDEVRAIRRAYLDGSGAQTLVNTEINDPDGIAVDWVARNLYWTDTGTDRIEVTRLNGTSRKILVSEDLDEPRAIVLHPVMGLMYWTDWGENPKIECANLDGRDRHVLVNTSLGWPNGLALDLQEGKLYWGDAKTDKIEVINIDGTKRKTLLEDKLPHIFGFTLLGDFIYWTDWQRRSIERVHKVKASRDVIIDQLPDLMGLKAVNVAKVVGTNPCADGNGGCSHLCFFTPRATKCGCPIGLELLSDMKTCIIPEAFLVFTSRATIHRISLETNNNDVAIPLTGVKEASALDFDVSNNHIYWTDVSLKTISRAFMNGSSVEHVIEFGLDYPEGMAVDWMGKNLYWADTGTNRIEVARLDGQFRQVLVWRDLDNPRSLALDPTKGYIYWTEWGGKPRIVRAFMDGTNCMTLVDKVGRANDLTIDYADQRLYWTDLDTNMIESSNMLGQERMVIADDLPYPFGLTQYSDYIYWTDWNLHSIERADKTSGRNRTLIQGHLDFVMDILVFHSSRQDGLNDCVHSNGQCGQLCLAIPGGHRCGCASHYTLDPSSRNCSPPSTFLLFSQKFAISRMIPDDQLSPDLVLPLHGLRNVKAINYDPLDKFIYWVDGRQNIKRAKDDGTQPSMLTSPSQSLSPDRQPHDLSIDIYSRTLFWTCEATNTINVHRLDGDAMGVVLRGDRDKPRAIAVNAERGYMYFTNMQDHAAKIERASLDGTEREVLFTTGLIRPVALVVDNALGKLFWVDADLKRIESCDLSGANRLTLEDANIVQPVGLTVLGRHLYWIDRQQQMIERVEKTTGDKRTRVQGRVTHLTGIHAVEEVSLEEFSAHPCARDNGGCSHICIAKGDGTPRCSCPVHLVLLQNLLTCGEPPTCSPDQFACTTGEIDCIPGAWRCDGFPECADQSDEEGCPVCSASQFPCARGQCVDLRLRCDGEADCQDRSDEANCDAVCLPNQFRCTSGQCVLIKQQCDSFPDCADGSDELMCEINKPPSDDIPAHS
Put plainly: single-point ELISA, coated antigen, purified Fab or IgG1, anti-kappa-HRP. As to the method: FIGS. 1A and 1B show sixteen (16) anti-LRP antibodies. (A) The amino acid sequences of the complementarity determining regions (CDR) of the heavy (H) and the light (L) chains are presented. The antibodies were grouped into unique epitopes as determined by competitive ELISAs. (B) Single-point ELISAs were performed on 96-well Maxisorb immune plates coated with ECD's of mouse LRP5, mouse LRP6 and human LRP6 chimeras. The plates were incubated with the purified Fab or IgG1 at the concentrations indicated followed by incubation with horseradish peroxidase (HRP)-conjugated anti-kappa antibody. The wells were washed eight times followed by incubation with 3,3′,5,5′-tetramethylbenzidine/H₂O₂ peroxidase (TMB) substrate for 5-10 min. The reaction was stopped by adding 1M H₃PO₄ and the absorbance was measured spectrometrically at 450 nm in a microtiter plate reader. FIG. 1A discloses “SSVA” as SEQ ID NO: 34, and “SASSLYS” as SEQ ID NO: 35, as well as SEQ ID NOS 36-49, 51, 44, 2-4, 4, 5-7, 5, 4, 5, 8-10, 4, 52, 55, 11-16, 15, 15, 13, 17-20, 13, 53, 56, 21-23, 22, 24-33, 54, 57, respectively, in order of columns.
as §1

B1: LRP5-A7 (antibody, V domains shown)
VH: EVQLVESGGGLVQPGGSLRLSCAASGFNLSYSSMHWVRQAPGKGLEWVASIYPYYGYTYYADSVKGRFTISADTSKNTAYLQMNSLRAEDTAVYYCARHGAMDYWGQGTLVTVSS
VL: DIQMTQSPSSLSASVGDRVTITCRASQSVSSAVAWYQQKPGKAPKLLIYSASSLYSGVPSRFSGSRSGTDFTLTISSLQPEDFATYYCQQAWGWGLFTFGQGTKVEIKR
notes: Fab-phage in the screen; also called LRP5-47
Turning to B1, the IC50 in experiment [1] worked out at 4.68 nM. Besides, the binding result in experiment [2] is recorded as “binds”.

B2: LRP5-E5 (antibody, V domains shown)
VH: EVQLVESGGGLVQPGGSLRLSCAASGFNIYSYSIHWVRQAPGKGLEWVASIYPYSSYTSYADSVKGRFTISADTSKNTAYLQMNSLRAEDTAVYYCARYAVYFPGYYWGMDYWGQGTLVTVSS
VL: B1 VL with A91Y, W92H, G93Y, W94Y, G95Y
notes: Fab-phage in the screen
For the molecule B2, the binding result in experiment [2] is reported as “binds”.

B3: LRP5-C12 (antibody, V domains shown)
VH: EVQLVESGGGLVQPGGSLRLSCAASGFNFSSSSIHWVRQAPGKGLEWVASIYSSYGSTSYADSVKGRFTISADTSKNTAYLQMNSLRAEDTAVYYCARTVRGSKKPYFSGWAMDYWGQGTLVTVSS
VL: B1 VL with A91F, W92S, G93H, W94V, G95S, F97I
notes: Fab-phage in the screen
B3: the binding result in experiment [2] is “binds”.

B4: LRP5-D9 (antibody, V domains shown)
VH: EVQLVESGGGLVQPGGSLRLSCAASGFNISYSYIHWVRQAPGKGLEWVASIYSSYGYTYYADSVKGRFTISADTSKNTAYLQMNSLRAEDTAVYYCARHYSYFFYAMDYWGQGTLVTVSS
VL: DIQMTQSPSSLSASVGDRVTITCRASQSVSSAVAWYQQKPGKAPKLLIYSASSLYSGVPSRFSGSRSGTDFTLTISSLQPEDFATYYCQQASYSPITFGQGTKVEIKR
notes: Fab-phage in the screen
For the molecule B4, the IC50 in experiment [1] came to 25.1 nM. Besides, the binding result in experiment [2] was “binds”.

B5: LRP5-H9 (antibody, V domains shown)
VH: EVQLVESGGGLVQPGGSLRLSCAASGFNIYSYYIHWVRQAPGKGLEWVASIYSYYGYTYYADSVKGRFTISADTSKNTAYLQMNSLRAEDTAVYYCARSYPAMDYWGQGTLVTVSS
VL: B4 VL with A91S
notes: Fab-phage in the screen
Regarding B5, in experiment [1], the IC50 is 37.5 nM. Besides, in experiment [2], the binding result is listed as “binds”.

B6: LRP5-G9 (antibody, V domains shown)
VH: EVQLVESGGGLVQPGGSLRLSCAASGFNISYSYIHWVRQAPGKGLEWVASIYSSYGYTYYADSVKGRFTISADTSKNTAYLQMNSLRAEDTAVYYCARWGAYHSSGYGMDYWGQGTLVTVSS
VL: B4 VL with A91S, Y93S
notes: Fab-phage in the screen
Take B6: the IC50 in experiment [1] is 26.4 nM.

B7: LRP5-H3 (antibody, V domains shown)
VH: EVQLVESGGGLVQPGGSLRLSCAASGFNLYYYYIHWVRQAPGKGLEWVASISPYYGYTSYADSVKGRFTISADTSKNTAYLQMNSLRAEDTAVYYCARSGYGWYAMDYWGQGTLVTVSS
VL: DIQMTQSPSSLSASVGDRVTITCRASQSVSSAVAWYQQKPGKAPKLLIYSASSLYSGVPSRFSGSRSGTDFTLTISSLQPEDFATYYCQQYWFLITFGQGTKVEIKR
notes: Fab-phage in the screen
On to B7, for which the binding result in experiment [2] is on record as “binds”.

B8: LRP5-G11 (antibody, V domains shown)
VH: EVQLVESGGGLVQPGGSLRLSCAASGFNISYSYIHWVRQAPGKGLEWVASIYPSYGYTYYADSVKGRFTISADTSKNTAYLQMNSLRAEDTAVYYCARAAPYYGYYYSYAMDYWGQGTLVTVSS
VL: B7 VL with Y91G, W92V, F93S
notes: Fab-phage in the screen
On to B8, for which the IC50 in experiment [1] was determined as 25.1 nM.

B9: LRP5-A9 (antibody, V domains shown)
VH: EVQLVESGGGLVQPGGSLRLSCAASGFNISSYSIHWVRQAPGKGLEWVASSSYYGYTYYADSVKGRFTISADTSKNTAYLQMNSLRAEDTAVYYCARTVRGSKKPYFSGWAMDYWGQGTLVTVSS
VL: DIQMTQSPSSLSASVGDRVTITCRASQSVSSAVAWYQQKPGKAPKLLIYSASSLYSGVPSRFSGSRSGTDFTLTISSLQPEDFATYYCQQVHYSPYSLITFGQGTKVEIKR
notes: Fab-phage in the screen
As for B9, the binding result in experiment [2] is listed as “binds”.

As a reminder, the IC50 is the concentration needed to halve the response being measured.
